The source of these data is patent US8632989B1, “Mutant insulin degrading enzyme and methods of use” (University of Kentucky Research Foundation, priority 2011, dated 2014).

In data set [1] the target is T1, Abz-GGFLRKHGQ-EDDnp (Rattus norvegicus, UniProt P35559).
T1 construct: hexahistidine (N); made in house; host or cells: Sf9 insect cells (baculovirus, pFastBac HTb)
T1 sequence (P35559 41-1019): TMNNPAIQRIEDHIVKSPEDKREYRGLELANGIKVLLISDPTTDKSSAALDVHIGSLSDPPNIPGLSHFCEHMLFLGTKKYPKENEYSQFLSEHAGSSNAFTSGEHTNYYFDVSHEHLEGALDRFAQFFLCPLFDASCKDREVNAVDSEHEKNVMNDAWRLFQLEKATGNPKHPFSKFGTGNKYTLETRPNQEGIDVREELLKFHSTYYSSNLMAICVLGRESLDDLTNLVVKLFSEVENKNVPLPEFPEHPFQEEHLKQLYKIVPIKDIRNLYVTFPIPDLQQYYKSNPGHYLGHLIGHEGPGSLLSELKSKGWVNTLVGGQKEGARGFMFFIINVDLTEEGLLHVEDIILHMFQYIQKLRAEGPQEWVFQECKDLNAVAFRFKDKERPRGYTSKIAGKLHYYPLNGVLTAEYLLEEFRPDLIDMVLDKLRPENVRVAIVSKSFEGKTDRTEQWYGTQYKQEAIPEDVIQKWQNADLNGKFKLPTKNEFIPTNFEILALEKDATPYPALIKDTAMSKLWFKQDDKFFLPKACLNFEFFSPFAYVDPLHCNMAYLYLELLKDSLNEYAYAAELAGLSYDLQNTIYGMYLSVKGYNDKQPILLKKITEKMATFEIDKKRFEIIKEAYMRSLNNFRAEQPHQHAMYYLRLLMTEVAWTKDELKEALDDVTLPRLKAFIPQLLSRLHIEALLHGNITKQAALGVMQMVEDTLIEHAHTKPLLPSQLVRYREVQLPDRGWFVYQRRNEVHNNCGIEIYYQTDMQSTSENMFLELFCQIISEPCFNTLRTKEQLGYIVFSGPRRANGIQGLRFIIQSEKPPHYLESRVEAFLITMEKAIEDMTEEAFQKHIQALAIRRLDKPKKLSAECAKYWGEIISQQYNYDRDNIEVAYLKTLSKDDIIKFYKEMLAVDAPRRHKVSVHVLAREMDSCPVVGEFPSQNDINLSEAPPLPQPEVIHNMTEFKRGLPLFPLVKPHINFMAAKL
The data set can be described thus: Activation by ATP of Abz-[…]-EDDnp hydrolysis, IDE and ATP binding site mutants. The class given is biochemical. The conditions noted are these: 10 μM Abz-GGFLRKHGQ-EDDnp as substrate. On the procedure:
Activity was determined in 50 mM Tris-HCl, pH 7.4 with 10 μM Abz-[…]-EDDnp (SEQ ID NO:3) as substrate at the indicated concentrations of ATP (panel A), PPPi (panel B) or, TNP-ATP (panel C). Each reaction contained 0.5 μg of enzyme.
IDE activity was determined by measuring the increase in fluorescence that occurs when the enzyme cleaves the internally quenched fluorogenic substrate Abz-[…]-EDDnp (SEQ ID NO:3) at the R—K bond (Song et al., Journal of Biologial Chemistry 276, 1152-1155 (2001)). The reaction was followed on a SpectraMax Gemini XS fluorescence plate reader using an excitation and emission wavelengths of 318 nm and 419 nm, respectively. Initial velocities were determined using SoftMax Pro 4.0 and kinetic constants calculated using GraphPad Prism 4.0. ATPase activity was measured by following Pi release with acid-molybdate as described by Harder et al. (Harder et al., Biochemical Journal 298 (Pt 2), 395-401 (1994)).

Data set [2] concerns Abz-GGFLRKHGQ-EDDnp. The data set can be described thus: Enzyme activity assay, kinetics of wild type rIDE and distal site mutants with fluorogenic substrate. The class given is biochemical. The protocol: FIG. 17. Effects of distal site mutations. (A) Comparison of the kinetics of wild type IDE with the distal site mutants. Activity was measured with varying amounts of Abz-[…]-EDDnp (SEQ ID NO:3) substrate as indicated. Either hyperbolic (Michaelis-Menten equation) or sigmoidal curves (Hill equation) were fit to the data. (B) Effect of bradykinin on the activity of wild type IDE and the distal site mutants. (C) Activation of wild type IDE and distal site mutants by ATP. Relative activity is the fold activation above the level of the wild type enzyme alone.
The activity of IDE was measured by following the increase in fluorescence upon hydrolysis at the L-R bond of the fluorogenic peptide Abz-[…]-EDDnp (SEQ ID NO:3) on a SpectraMax Gemini XS fluorescence plate reader using an excitation wavelength of 318 nm and emission wavelength of 419 nm. Reactions were carried out in 200 μl volumes containing 50 mM Tris-HCl, pH 7.4, 1.92 μg of wild type rIDE, 4.6 μg of rIDE-V360S, 4.3 μg rIDE-I374S, or 1.63 μg of rIDE-Y609F. For measurements of activation by bradykinin, IDE activity was determined with 10 μM Abz-[…]-EDDnp (SEQ ID NO:3) as substrate in 50 mM Tris-HCl buffer, pH 7.4. The amount of protein was 0.5 μg for wild type rIDE and 5 μg for each of the IDE distal-site mutants. Data were analyzed using Softmax 4.0 (Molecular Devices) and kinetic parameters calculated with Prism (Graphpad Software). […] Under these assay conditions, both wild type and mutant rIDE are almost completely dimeric.

B1: IDE: Native rat insulin degrading enzyme (SEQ ID NO:1), expressed as hexahistidine fusion protein in Sf9 insect cells (protein, listed as Rattus norvegicus)
chain: MRNGLVWLLHPALPSTLHSILGARPPPVKRLCGFPKQIYSTMNNPAIQRIEDHIVKSPEDKREYRGLELANGIKVLLISDPTTDKSSAALDVHIGSLSDPPNIPGLSHFCEHMLFLGTKKYPKENEYSQFLSEHAGSSNAFTSGEHTNYYFDVSHEHLEGALDRFAQFFLCPLFDASCKDREVNAVDSEHEKNVMNDAWRLFQLEKATGNPKHPFSKFGTGNKYTLETRPNQEGIDVREELLKFHSTYYSSNLMAICVLGRESLDDLTNLVVKLFSEVENKNVPLPEFPEHPFQEEHLKQLYKIVPIKDIRNLYVTFPIPDLQQYYKSNPGHYLGHLIGHEGPGSLLSELKSKGWVNTLVGGQKEGARGFMFFIINVDLTEEGLLHVEDIILHMFQYIQKLRAEGPQEWVFQECKDLNAVAFRFKDKERPRGYTSKIAGKLHYYPLNGVLTAEYLLEEFRPDLIDMVLDKLRPENVRVAIVSKSFEGKTDRTEQWYGTQYKQEAIPEDVIQKWQNADLNGKFKLPTKNEFIPTNFEILALEKDATPYPALIKDTAMSKLWFKQDDKFFLPKACLNFEFFSPFAYVDPLHCNMAYLYLELLKDSLNEYAYAAELAGLSYDLQNTIYGMYLSVKGYNDKQPILLKKITEKMATFEIDKKRFEIIKEAYMRSLNNFRAEQPHQHAMYYLRLLMTEVAWTKDELKEALDDVTLPRLKAFIPQLLSRLHIEALLHGNITKQAALGVMQMVEDTLIEHAHTKPLLPSQLVRYREVQLPDRGWFVYQRRNEVHNNCGIEIYYQTDMQSTSENMFLELFCQIISEPCFNTLRTKEQLGYIVFSGPRRANGIQGLRFIIQSEKPPHYLESRVEAFLITMEKAIEDMTEEAFQKHIQALAIRRLDKPKKLSAECAKYWGEIISQQYNYDRDNIEVAYLKTLSKDDIIKFYKEMLAVDAPRRHKVSVHVLAREMDSCPVVGEFPSQNDINLSEAPPLPQPEVIHNMTEFKRGLPLFPLVKPHINFMAAKL
modifications: hexahistidine tag; wild-type Insulin Degrading Enzyme (IDE) from rat
For the molecule B1, in data set [1], the “activation by ATP” value was “roughly 150 fold”. Besides, the Specific activity in data set [2] (Abz-GGFLRKHGQ-EDDnp substrate) is 8,131 nmol/min/mg. The Km in data set [2] (rat IDE, Abz-GGFLRKHGQ-EDDnp as substrate) stood at 15.9 ± 1.19 µM. Moreover, the Vmax in data set [2] (rat IDE, Abz-GGFLRKHGQ-EDDnp as substrate, 50 mM Tris-HCl, pH 7.4) is 35.5 ± 11.6 nmol/min/mg. For the same molecule, the Hill coefficient in data set [2] (rat IDE, Abz-GGFLRKHGQ-EDDnp as substrate, listed as Wild Type) was found to be 1.8 ± 0.16; in data set [2] (rat IDE, Abz-GGFLRKHGQ-EDDnp as substrate, listed as wild type enzyme) it was 1.80.

Usually Km stands for the concentration of substrate that gives half-maximal velocity. In general, Vmax refers to the top rate of the reaction or transport when substrate is in excess. A word on the Hill coefficient: it is the slope factor of the fitted curve.
